First the molecules themselves.
B1: Rho guanine nucleotide exchange factor 7 (Homo sapiens), Q14155 (parent)
chain: MNSAEQTVTWLITLGVLESPKKTISDPEGFLQASLKDGVVLCRLLERLLPGTIEKVYPEPRSESECLSNIREFLRGCGASLRLELLFPPSQPPQHLVTTILLSASTFDANDLYQGQNFNKVLSSLVTLNKVTADIGLGSDSVCARPSSHRIKSFDSLGSQSLHTRTSKLFQGQYRSLDMTDNSNNQLVVRAKFNFQQTNEDELSFSKGDVIHVTRVEEGGWWEGTLNGRTGWFPSNYVREVKASEKPVSPKSGTLKSPPKGFDTTAINKSYYNVVLQNILETENEYSKELQTVLSTYLRPLQTSEKLSSANISYLMGNLEEICSFQQMLVQSLEECTKLPEAQQRVGGCFLNLMPQMKTLYLTYCANHPSAVNVLTEHSEELGEFMETKGASSPGILVLTTGLSKPFMRLDKYPTLLKELERHMEDYHTDRQDIQKSMAAFKNLSAQCQEVRKRKELELQILTEAIRNWEGDDIKTLGNVTYMSQVLIQCAGSEEKNERYLLLFPNVLLMLSASPRMSGFIYQGKLPTTGMTITKLEDSENHRNAFEISGSMIERILVSCNNQQDLQEWVEHLQKQTKVTSVGNPTIKPHSVPSHTLPSHPVTPSSKHADSKPAPLTPAYHTLPHPSHHGTPHTTINWGPLEPPKTPKPWSLSCLRPAPPLRPSAALCYKEDLSKSPKTMKKLLPKRKPERKPSDEEFASRKSTAALEEDAQILKVIEAYCTSAKTRQTLNSTWQGTDLMHNHVLADDDQPSLDSLGRRSSLSRLEPSDLSEDSDYDSIWTAHSYRMGSTSRKSCCSYISHQN
partner: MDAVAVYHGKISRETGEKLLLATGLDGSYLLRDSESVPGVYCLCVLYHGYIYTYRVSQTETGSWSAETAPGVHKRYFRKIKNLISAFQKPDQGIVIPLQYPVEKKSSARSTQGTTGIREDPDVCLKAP
B2: SH2 domain-containing protein 1A (Homo sapiens), O60880-1 (parent)
chain: B1 partner

In one experiment the parent is B1. Conditions: with SH2D1A.
Turning to W221P;W222G, the “effect of a mutation on the interaction” value is given as “disrupting interaction strength”.

In a further experiment the parent is B2. Conditions: with arhg7_human ARHGEF7, Q14155.
On to MDAVAVYHGKISRETGEKLLLATGLDGSYLLRDSESVPGVYCLCVLYHGYIYTYRVSQTETGSWSAETAPGVHKRYFAKIKNLISAFQKPDQGIVIPLQYPVEKKSSARSTQGTTGIREDPDVCLKAP [R78A], for which the “effect of a mutation on the interaction” value is given as “disrupting interaction strength”.

Values taken from IntAct's records for PubMed 16983070.
